{
  "source": "the nanobody polyreactivity screen of Harvey et al. (2022)",
  "data": [
    {"assay": "yeast display, Sf9 membrane polyspecificity reagent, FACS + sequencing; frameworks hold sequencing errors", "in_short": "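Polyreactivity labels are assigned by the sorting gate from which each nanobody was recovered. The gates were low and high (top ~1%), set on anti-HA fluorescence for expression and streptavidin fluorescence for reagent binding. Before sorting, galactose-induced (36–48 hours) yeast display cells were stained for 1 hour at 4 °C with 10% biotinylated, detergent-solubilized Sf9 membrane reagent.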", "values": [
      {"sequence": "QVQLVESGGGLVQAGGSLRLSCAASGNTLNYYTMGWYRQAPGKERELVAAISSSGGSTYYADSVKGRFTISRDNAKNTVYLQMNSLKPEDTAVYYCAVLFYNNFGYWGQGTQVTVSS", "polyreactivity (PSR sort gate)": "low polyreactivity"},
      {"sequence": "QVQLVESGGGLVQAGGSLRLSCAASGNTYSYNAMGWYRQAPGKEREFVASISRRGGRTNYADSVKGRFTISRDNAKYTVYLQMNSLKPEDTAVYYCAATTVPLGDYWGQGTQVTVST", "polyreactivity (PSR sort gate)": "high polyreactivity"},
      {"sequence": "QVQLVESGGGLVQAGGSLRLSCAASGNTYTSYAMGWYRQAPGKDRELVAAISASGSSTYYADSVKGRFTISRDNAKNTVYLQMNSLKPEDTAVFYCARQWYWRPGYYMGQGYEYWGQGTQVTVSS", "polyreactivity (PSR sort gate)": "low polyreactivity"},
      {"sequence": "QVQLVESGGGLVQAGGSLRLSCAASGPIFATNAMGWYRQAPGKERELVASISSGGGSTYYADSVKGRFTISRDNAKNTVYLQMNSLKPEDTAVYYCAADYYTGYVWEDYYWGQGTQVTVSS", "polyreactivity (PSR sort gate)": "low polyreactivity"},
      {"sequence": "QVQLVESGGGLVQAGGSLRLSCAASGPIFPAYAMGWYRQAPGKERELVASIRRGGITYADSVKGRFTISRDNAKNTVYLQMNSLKPEDTAVYYCNADYRGWGYHMDYWGQGTQVTVSS", "polyreactivity (PSR sort gate)": "low polyreactivity"},
      {"sequence": "QVQLVESGGGLVQAGGSLRLSCAASGPIIGQYAMVWYIQAPGKERELVAAITYSGGRTYYADSVKGRFTISRDNAKNTVYLQMNSLKPEDTAVYYCAARGRASFERRGGYYYWGQVTQVTVSS", "polyreactivity (PSR sort gate)": "high polyreactivity"},
      {"sequence": "QVQLVESGGGLVQAGGSLRLSCAASGPTFDYNAMGCYRPAPGKERELVAAIRFGGGSTYYADSVKGRFTISRDNAKNTVYFQINSLKPEDTAVYYCNASPLWIGWVIVPVGSSHYDYWGQGTQVTVSS", "polyreactivity (PSR sort gate)": "low polyreactivity"},
      {"sequence": "QVQLVESGGGLVQAGGSLRLSCAASGPTFKRYAMGWYRQAPGKERELVAAITGTGAITYYADSVKGRFTISRDNAKNTVYLQMNSLKPEDTAVYYCAALGYYRYKYQASSNGFDYWGQGTQVTVSS", "polyreactivity (PSR sort gate)": "high polyreactivity"},
      {"sequence": "QVQLVESGGGLVQAGGSLRLSCAASGPTFLVNAMGWYRQAPGKERELVATINWNAGSTYYADSVKGRFTISRDYAKNTVYLQMNSLKPEDTAVYYCAAPYEQAPTTDVSSLIPLHDYWGQGTQVTVSS", "polyreactivity (PSR sort gate)": "low polyreactivity"},
      {"sequence": "QVQLVESGGGLVQAGGSLRLSCAASGPTFRRYGMGWYRQAPGKERELVDAITTRGGSTYYADSVKGRFTISRDNAKNTVYLQMNSLKPEDTAVYYCAAPRKYFYSSATGNYWGQGTQVTVSS", "polyreactivity (PSR sort gate)": "high polyreactivity"},
      {"sequence": "QVQLVESGGGLVQAGGSLRLSCAASGPTFYYYAMGWYRQEPGKERELVAAIRVRGGSTYYADSVKGRFTISRDNAKNTVYLQMNSLKPEDTAVYYCAADHTFYGVHKYDYWGQGTQVTVSS", "polyreactivity (PSR sort gate)": "low polyreactivity"},
      {"sequence": "QVQLVESGGGLVQAGGSLRLSCAASGQIFHSYAMGWSRQAPGKERELVAAISRGGGSTYYADSVKGRFTISRDNAKNTVYLQMNSLKPEDTAVYYCARENLTRYDYWGQGTQVTVSS", "polyreactivity (PSR sort gate)": "high polyreactivity"},
      {"sequence": "QVQLVESGGGLVQAGGSLRLSCAASGQIFYRYAMGWDRQAPGKERELVAAISSGGSTYYADSVKGRFTISRDNAKNTVYLQMNSLKPEDTAVYYCNTGYWYVSLGSYDYYGEYDYWGQGTQVTVSS", "polyreactivity (PSR sort gate)": "high polyreactivity"},
      {"sequence": "QVQLVESGGGLVQAGGSLRLSCAASGRAFKRYAMGWYRQAPGKERELVAAITRSGGSTYYADSVTGRFTISRDKAKNTVYLQMNSLKPEDTAVYYCATRSYNNELEYWGQGTQVTVSS", "polyreactivity (PSR sort gate)": "high polyreactivity"},
      {"sequence": "QVQLVESGGGLVQAGGSLRLSCAASGRICTRNAMGWYRQAPGKERELVAAISWRGGSTYYADSVKGRFTISRDNAKNTVYLQMNSLKPEDTAVYYCNAYFLSQYQSAYRDDYWGQGTQVTVSS", "polyreactivity (PSR sort gate)": "high polyreactivity"},
      {"sequence": "QVQLVESGGGLVQAGGSLRLSCAASGRIFAANTMGWYRQAPGKEREFVAVIRGRGGSTYYADSVKGRFTISRDNAKNTVYLQMNSLKPEDTAVYYCAAYYKPYRERLYGYWGQGTQVTVSS", "polyreactivity (PSR sort gate)": "high polyreactivity"},
      {"sequence": "QVQLVESGGGLVQAGGSLRLSCAASGRIFAAYAMGWYRQAPGKERELVAAITRRGSTYYADSVKGRFTISRDNDKKTVYFQMNSLKPEDTAVYYCNKVPLFQYSTAWYDYWGQGTQVTVSS", "polyreactivity (PSR sort gate)": "high polyreactivity"},
      {"sequence": "QVQLVESGGGLVQAGGSLRLSCAASGRIFAAYAMGWYRQAPGKERELVAAITWDGDSTYYADSVKGRFTISRDNAKNTVYLQMNSLKPEDTAVYYCAAYWSTWYDWGQGTQVTVSS", "polyreactivity (PSR sort gate)": "high polyreactivity"},
      {"sequence": "QVQLVESGGGLVQAGGSLRLSCAASGRIFAAYAMGWYRQAPGKERELVAAITWRGGSTYYADSVKGRFTISRDNAKNTVYLQMNSLKPEDTAVYYCNARVYYYPGYDYWGQGTQVTVSS", "polyreactivity (PSR sort gate)": "low polyreactivity"},
      {"sequence": "QVQLVESGGGLVQAGGSLRLSCAASGRIFADYAMGWYRQAPGKETELVAAISSTSSTNYADSVKGRFTISRDNAKNTVYLQMNSLKPEDTAVYYCAKRIGHLPFRPYDYWGQGTQVTVSS", "polyreactivity (PSR sort gate)": "low polyreactivity"},
      {"sequence": "QVQLVESGGGLVQAGGSLRLSCAASGRIFAEYAMGWYIQATGKERELVASISRRGGSTYYADSVKGRFTISRDNAKNTVYLQMNSLKPEDTAVYYCAAVWAYYHTRYSTWGYDYWGQGTQVTVSS", "polyreactivity (PSR sort gate)": "high polyreactivity"},
      {"sequence": "QVQLVESGGGLVQAGGSLRLSCAASGRIFAFNAMGGYRQAPGKERELVAAITGRGGRTYYADSVKGRFTISRDHAKNTVYLQMNSLKPEDTAVYYCAAQRYINYDYWGQGTQVTVSS", "polyreactivity (PSR sort gate)": "high polyreactivity"},
      {"sequence": "QVQLVESGGGLVQAGGSLRLSCAASGRIFAFYAMGWYRQAPGKERELVAAISWDGGSSYYADSVKGRFTISRDNAKNTVYLQMNSLKPEDTAVYDCNKDLYYAYDYWGQGTQVTVSS", "polyreactivity (PSR sort gate)": "low polyreactivity"},
      {"sequence": "QVQLVESGGGLVQAGGSLRLSCAASGRIFAGYAMGWYRQAPGTERELVATITRGGSTNYADSVKRPFTISRDNAKNTVYLQMNSLKPEDTAVYYCNADIRRHGGYAHEYWGQGTKVTVSS", "polyreactivity (PSR sort gate)": "low polyreactivity"},
      {"sequence": "QVQLVESGGGLVQAGGSLRLSCAASGRIFAGYTMGWYRPAPGKERELVAAIRSSGRTHYADSVKGRFTISRDNAKNTVYLQMYSLKPEDTAVYYCAARWTYTFAYRFDYWGQGTQVTVSS", "polyreactivity (PSR sort gate)": "high polyreactivity"},
      {"sequence": "QVQLVESGGGLVQAGGSLRLSCAASGRIFAHFAMGGYRQAPGKEWELVAAIDSGGSTDYADSVKGRFTISRDNAKNTVYLQMNSLKPEDTAVYYCNAERAYLWWYNFDYWGQGTQVTVSS", "polyreactivity (PSR sort gate)": "low polyreactivity"},
      {"sequence": "QVQLVESGGGLVQAGGSLRLSCAASGRIFAKNAMGWYRQAPGKERELVAAISGSGGSTYYADSVKGRFTISRDNAKNTVYLQMNSLKPDDTAVYYCAATRGPNYRNGYWGQGTQVTVSS", "polyreactivity (PSR sort gate)": "high polyreactivity"},
      {"sequence": "QVQLVESGGGLVQAGGSLRLSCAASGRIFAKNTMGWYRQAPGKERELVAAITWSSGNTDYADSVKGRFTISRDNAKNTVYLQMNSLKPEDTAVYYCAAYPRWTYWGYVERYYWGQGTQVTVSS", "polyreactivity (PSR sort gate)": "high polyreactivity"},
      {"sequence": "QVQLVESGGGLVQAGGSLRLSCAASGRIFANYAMGWYRQAPGKERELVAAISRSGGSTSYADSVKGRFTISRDNAKNTVYLQMNSLKPEDTAVYYCAATRSRYQPVKYGYWGQGTQVTVSS", "polyreactivity (PSR sort gate)": "high polyreactivity"},
      {"sequence": "QVQLVESGGGLVQAGGSLRLSCAASGRIFAPNAMGWYRQAPGKEREFVASIRWNGGSTYYADSVKGRFTISRDNAKNTVYLQMNSLKPADTAVYYCAARGWGYRRNYVYAWYDYWGQGTQVTVSS", "polyreactivity (PSR sort gate)": "high polyreactivity"},
      {"sequence": "QVQLVESGGGLVQAGGSLRLSCAASGRIFAPNAMGWYRQAPGKERELVAAISFSGDSTSYADSVKGRFTISRDNAKNTVYLQMNSLKPEDTAVYYCATDRRVQYPLGPSYDYDYWGQGTQVTVSS", "polyreactivity (PSR sort gate)": "low polyreactivity"},
      {"sequence": "QVQLVESGGGLVQAGGSLRLSCAASGRIFAPYAMGWYRQAPGKERELVAGISIGGSTYYADSVKGRFTISRDNAKNTVYLQMNSLKPEDTAVYYCAALYNFWYSTYYYWGQGTQVTVSS", "polyreactivity (PSR sort gate)": "high polyreactivity"},
      {"sequence": "QVQLVESGGGLVQAGGSLRLSCAASGRIFARNAMGWSRQAPGKERELVAAISGGGNTYADSVKGRFTISRDNAKNTVYLQMNSLKPEDTAVYYCARVVHFRGVRYDYWGQGTQVTVSS", "polyreactivity (PSR sort gate)": "high polyreactivity"},
      {"sequence": "QVQLVESGGGLVQAGGSLRLSCAASGRIFARNAMGWSRQAPGKERELVAASSSGGGSTYYADSVKGRFTISRDNAKNTVYLRMISLKPEDTAVYYCAARTRITYDWGQGTQVTVSS", "polyreactivity (PSR sort gate)": "low polyreactivity"},
      {"sequence": "QVQLVESGGGLVQAGGSLRLSCAASGRIFARNAMGWYRQAPGKERELVATIRVGGGSTYYADSVKGRFTISRDNAKNTVYLQMNSLKPEDTAVYSCAVRQLYSYPGDRRGYYWGQGTQVTVSS", "polyreactivity (PSR sort gate)": "low polyreactivity"},
      {"sequence": "QVQLVESGGGLVQAGGSLRLSCAASGRIFARYAMGWYRQAPGKERELVAAITVSGDNTYYADSVKGRFTISRDNAKNTVYLQMNSLKPEDTAVYYCNAYFLVHYRRLRPYDYWGQGTQVTVSS", "polyreactivity (PSR sort gate)": "low polyreactivity"},
      {"sequence": "QVQLVESGGGLVQAGGSLRLSCAASGRIFASNAMGWYRQAPGKERELVAAIDQGGGSTYYADSVKGRFTISRDNAKNTVYLQMNSLKPEDTAVYDCAADYISAYPRLYNYWGQGTQVTVSS", "polyreactivity (PSR sort gate)": "low polyreactivity"},
      {"sequence": "QVQLVESGGGLVQAGGSLRLSCAASGRIFASNDMGWYRQAPGKEREWVAAITSGGSTYYADSVKGRFTISRDNAKNTVYLQMNSLKPEDTAVYYCAAGSAYYSQRYFAYGYYSWGQGTQVTVSS", "polyreactivity (PSR sort gate)": "low polyreactivity"},
      {"sequence": "QVQLVESGGGLVQAGGSLRLSCAASGRIFASYAMGWYRQAPGKERELVAAISGSGASTYYADSVKGRFTISRDNAKNTVYLQMNSLKPEDTAVYYCAAKATSEGDEYWGQGTQVTVSS", "polyreactivity (PSR sort gate)": "high polyreactivity"},
      {"sequence": "QVQLVESGGGLVQAGGSLRLSCAASGRIFASYAMGWYRQAPGKERELVAAISWGDDSTYYADSVKGRFTISRDNAKNTVYLQMNSLKPEDTAVYYCAAAFWFGPYRLYYWGQGTQVTVSS", "polyreactivity (PSR sort gate)": "high polyreactivity"},
      {"sequence": "QVQLVESGGGLVQAGGSLRLSCAASGRIFATYVMGGYRQAPGKERELVATISSGGSTNYADSVKGRFTISRDNAKNTVYLQMNSLKPEDTAVYYCAVVDGNYWYVKGDYWGQGTQVTVSS", "polyreactivity (PSR sort gate)": "low polyreactivity"},
      {"sequence": "QVQLVESGGGLVQAGGSLRLSCAASGRIFAWNAMGWYRQAPGKERELVAAITRGTNTYYADSVKGRFTISRDNAKNTVYLQMNSLKPEDTAVYYCAARLPYNAIGYYYWGQGTQVTVSS", "polyreactivity (PSR sort gate)": "low polyreactivity"},
      {"sequence": "QVQLVESGGGLVQAGGSLRLSCAASGRIFAWNAMGWYRQAPGKERELVARIRVSGGRTYYADSVKGRFTISRDNAKNTVYLQMKSLKPDDTAVYYCNAYLRSGSMDYWGQGTQVTVSS", "polyreactivity (PSR sort gate)": "high polyreactivity"}
    ]}
  ]
}
